The values below come from US20160272683A1 (Novo Nordisk, published 2016).

The chains are these.
T1: human amylin receptor (human calcitonin receptor + human RAMP3) (human) (UniProt P30988)
T1 sequence (looked up) 1: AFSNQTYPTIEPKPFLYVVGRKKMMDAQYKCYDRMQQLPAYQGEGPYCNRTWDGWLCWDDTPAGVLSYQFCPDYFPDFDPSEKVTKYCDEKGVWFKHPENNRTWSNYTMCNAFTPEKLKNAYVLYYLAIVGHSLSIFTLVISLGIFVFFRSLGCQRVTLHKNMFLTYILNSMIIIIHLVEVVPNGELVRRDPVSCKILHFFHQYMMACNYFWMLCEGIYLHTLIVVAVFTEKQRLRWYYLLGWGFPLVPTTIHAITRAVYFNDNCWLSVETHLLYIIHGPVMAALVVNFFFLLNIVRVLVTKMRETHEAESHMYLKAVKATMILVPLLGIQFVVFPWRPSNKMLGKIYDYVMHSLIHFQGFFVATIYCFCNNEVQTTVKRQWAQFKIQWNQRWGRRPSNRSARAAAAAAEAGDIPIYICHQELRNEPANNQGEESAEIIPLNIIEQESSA
T1 sequence (looked up) 2: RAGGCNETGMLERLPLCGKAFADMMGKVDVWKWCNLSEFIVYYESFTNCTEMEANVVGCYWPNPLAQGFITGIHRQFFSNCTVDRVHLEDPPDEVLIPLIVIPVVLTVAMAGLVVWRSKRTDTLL

B1: [N-terminal(C18 diacid), 6H]mimylin (peptide)
peptide: {C18 diacid}-EASELHTAALGRLSAELHELATLPRTETGPESP-NH2
SMILES: CC(C)C[C@H](NC(=O)[C@H](C)NC(=O)[C@H](C)NC(=O)[C@@H](NC(=O)[C@H](Cc1c[nH]cn1)NC(=O)[C@H](CC(C)C)NC(=O)[C@H](CCC(=O)O)NC(=O)[C@H](CO)NC(=O)[C@H](C)NC(=O)[C@H](CCC(=O)O)NC(=O)CCCCCCCCCCCCCCCCC(=O)O)[C@@H](C)O)C(=O)NCC(=O)N[C@@H](CCCNC(=N)N)C(=O)N[C@@H](CC(C)C)C(=O)N[C@@H](CO)C(=O)N[C@@H](C)C(=O)N[C@@H](CCC(=O)O)C(=O)N[C@@H](CC(C)C)C(=O)N[C@@H](Cc1c[nH]cn1)C(=O)N[C@@H](CCC(=O)O)C(=O)N[C@@H](CC(C)C)C(=O)N[C@@H](C)C(=O)N[C@H](C(=O)N[C@@H](CC(C)C)C(=O)N1CCC[C@H]1C(=O)N[C@@H](CCCNC(=N)N)C(=O)N[C@H](C(=O)N[C@@H](CCC(=O)O)C(=O)N[C@H](C(=O)NCC(=O)N1CCC[C@H]1C(=O)N[C@@H](CCC(=O)O)C(=O)N[C@@H](CO)C(=O)N1CCC[C@H]1C(N)=O)[C@@H](C)O)[C@@H](C)O)[C@@H](C)O
B2: [N-terminal(C18 diacid), 18A]mimylin (peptide)
peptide: {C18 diacid}-EASELSTAALGRLSAELAELATLPRTETGPESP-NH2
SMILES: CC(C)C[C@H](NC(=O)[C@H](C)NC(=O)[C@H](C)NC(=O)[C@@H](NC(=O)[C@H](CO)NC(=O)[C@H](CC(C)C)NC(=O)[C@H](CCC(=O)O)NC(=O)[C@H](CO)NC(=O)[C@H](C)NC(=O)[C@H](CCC(=O)O)NC(=O)CCCCCCCCCCCCCCCCC(=O)O)[C@@H](C)O)C(=O)NCC(=O)N[C@@H](CCCNC(=N)N)C(=O)N[C@@H](CC(C)C)C(=O)N[C@@H](CO)C(=O)N[C@@H](C)C(=O)N[C@@H](CCC(=O)O)C(=O)N[C@@H](CC(C)C)C(=O)N[C@@H](C)C(=O)N[C@@H](CCC(=O)O)C(=O)N[C@@H](CC(C)C)C(=O)N[C@@H](C)C(=O)N[C@H](C(=O)N[C@@H](CC(C)C)C(=O)N1CCC[C@H]1C(=O)N[C@@H](CCCNC(=N)N)C(=O)N[C@H](C(=O)N[C@@H](CCC(=O)O)C(=O)N[C@H](C(=O)NCC(=O)N1CCC[C@H]1C(=O)N[C@@H](CCC(=O)O)C(=O)N[C@@H](CO)C(=O)N1CCC[C@H]1C(N)=O)[C@@H](C)O)[C@@H](C)O)[C@@H](C)O
B3: [N-terminal(C18 diacid), 5H]mimylin (peptide)
peptide: {C18 diacid}-EASEHSTAALGRLSAELHELATLPRTETGPESP-NH2
SMILES: CC(C)C[C@H](NC(=O)[C@H](C)NC(=O)[C@H](C)NC(=O)[C@@H](NC(=O)[C@H](CO)NC(=O)[C@H](Cc1c[nH]cn1)NC(=O)[C@H](CCC(=O)O)NC(=O)[C@H](CO)NC(=O)[C@H](C)NC(=O)[C@H](CCC(=O)O)NC(=O)CCCCCCCCCCCCCCCCC(=O)O)[C@@H](C)O)C(=O)NCC(=O)N[C@@H](CCCNC(=N)N)C(=O)N[C@@H](CC(C)C)C(=O)N[C@@H](CO)C(=O)N[C@@H](C)C(=O)N[C@@H](CCC(=O)O)C(=O)N[C@@H](CC(C)C)C(=O)N[C@@H](Cc1c[nH]cn1)C(=O)N[C@@H](CCC(=O)O)C(=O)N[C@@H](CC(C)C)C(=O)N[C@@H](C)C(=O)N[C@H](C(=O)N[C@@H](CC(C)C)C(=O)N1CCC[C@H]1C(=O)N[C@@H](CCCNC(=N)N)C(=O)N[C@H](C(=O)N[C@@H](CCC(=O)O)C(=O)N[C@H](C(=O)NCC(=O)N1CCC[C@H]1C(=O)N[C@@H](CCC(=O)O)C(=O)N[C@@H](CO)C(=O)N1CCC[C@H]1C(N)=O)[C@@H](C)O)[C@@H](C)O)[C@@H](C)O
B4: [N-terminal(C18 diacid), 8L]mimylin (peptide)
peptide: {C18 diacid}-EASELSTLALGRLSAELHELATLPRTETGPESP-NH2
SMILES: CC(C)C[C@H](NC(=O)[C@H](C)NC(=O)[C@H](CC(C)C)NC(=O)[C@@H](NC(=O)[C@H](CO)NC(=O)[C@H](CC(C)C)NC(=O)[C@H](CCC(=O)O)NC(=O)[C@H](CO)NC(=O)[C@H](C)NC(=O)[C@H](CCC(=O)O)NC(=O)CCCCCCCCCCCCCCCCC(=O)O)[C@@H](C)O)C(=O)NCC(=O)N[C@@H](CCCNC(=N)N)C(=O)N[C@@H](CC(C)C)C(=O)N[C@@H](CO)C(=O)N[C@@H](C)C(=O)N[C@@H](CCC(=O)O)C(=O)N[C@@H](CC(C)C)C(=O)N[C@@H](Cc1c[nH]cn1)C(=O)N[C@@H](CCC(=O)O)C(=O)N[C@@H](CC(C)C)C(=O)N[C@@H](C)C(=O)N[C@H](C(=O)N[C@@H](CC(C)C)C(=O)N1CCC[C@H]1C(=O)N[C@@H](CCCNC(=N)N)C(=O)N[C@H](C(=O)N[C@@H](CCC(=O)O)C(=O)N[C@H](C(=O)NCC(=O)N1CCC[C@H]1C(=O)N[C@@H](CCC(=O)O)C(=O)N[C@@H](CO)C(=O)N1CCC[C@H]1C(N)=O)[C@@H](C)O)[C@@H](C)O)[C@@H](C)O
B5: [N-terminal(C18 diacid), 17I]mimylin (peptide)
peptide: {C18 diacid}-EASELSTAALGRLSAEIHELATLPRTETGPESP-NH2
SMILES: CC[C@H](C)[C@H](NC(=O)[C@H](CCC(=O)O)NC(=O)[C@H](C)NC(=O)[C@H](CO)NC(=O)[C@H](CC(C)C)NC(=O)[C@H](CCCNC(=N)N)NC(=O)CNC(=O)[C@H](CC(C)C)NC(=O)[C@H](C)NC(=O)[C@H](C)NC(=O)[C@@H](NC(=O)[C@H](CO)NC(=O)[C@H](CC(C)C)NC(=O)[C@H](CCC(=O)O)NC(=O)[C@H](CO)NC(=O)[C@H](C)NC(=O)[C@H](CCC(=O)O)NC(=O)CCCCCCCCCCCCCCCCC(=O)O)[C@@H](C)O)C(=O)N[C@@H](Cc1c[nH]cn1)C(=O)N[C@@H](CCC(=O)O)C(=O)N[C@@H](CC(C)C)C(=O)N[C@@H](C)C(=O)N[C@H](C(=O)N[C@@H](CC(C)C)C(=O)N1CCC[C@H]1C(=O)N[C@@H](CCCNC(=N)N)C(=O)N[C@H](C(=O)N[C@@H](CCC(=O)O)C(=O)N[C@H](C(=O)NCC(=O)N1CCC[C@H]1C(=O)N[C@@H](CCC(=O)O)C(=O)N[C@@H](CO)C(=O)N1CCC[C@H]1C(N)=O)[C@@H](C)O)[C@@H](C)O)[C@@H](C)O
B6: [N-terminal(C18 diacid), 20I]mimylin (peptide)
peptide: {C18 diacid}-EASELSTAALGRLSAELHEIATLPRTETGPESP-NH2
SMILES: CC[C@H](C)[C@H](NC(=O)[C@H](CCC(=O)O)NC(=O)[C@H](Cc1c[nH]cn1)NC(=O)[C@H](CC(C)C)NC(=O)[C@H](CCC(=O)O)NC(=O)[C@H](C)NC(=O)[C@H](CO)NC(=O)[C@H](CC(C)C)NC(=O)[C@H](CCCNC(=N)N)NC(=O)CNC(=O)[C@H](CC(C)C)NC(=O)[C@H](C)NC(=O)[C@H](C)NC(=O)[C@@H](NC(=O)[C@H](CO)NC(=O)[C@H](CC(C)C)NC(=O)[C@H](CCC(=O)O)NC(=O)[C@H](CO)NC(=O)[C@H](C)NC(=O)[C@H](CCC(=O)O)NC(=O)CCCCCCCCCCCCCCCCC(=O)O)[C@@H](C)O)C(=O)N[C@@H](C)C(=O)N[C@H](C(=O)N[C@@H](CC(C)C)C(=O)N1CCC[C@H]1C(=O)N[C@@H](CCCNC(=N)N)C(=O)N[C@H](C(=O)N[C@@H](CCC(=O)O)C(=O)N[C@H](C(=O)NCC(=O)N1CCC[C@H]1C(=O)N[C@@H](CCC(=O)O)C(=O)N[C@@H](CO)C(=O)N1CCC[C@H]1C(N)=O)[C@@H](C)O)[C@@H](C)O)[C@@H](C)O
B7: [N-terminal(C18 diacid), 32H]mimylin (peptide)
peptide: {C18 diacid}-EASELSTAALGRLSAELHELATLPRTETGPEHP-NH2
SMILES: CC(C)C[C@H](NC(=O)[C@H](C)NC(=O)[C@H](C)NC(=O)[C@@H](NC(=O)[C@H](CO)NC(=O)[C@H](CC(C)C)NC(=O)[C@H](CCC(=O)O)NC(=O)[C@H](CO)NC(=O)[C@H](C)NC(=O)[C@H](CCC(=O)O)NC(=O)CCCCCCCCCCCCCCCCC(=O)O)[C@@H](C)O)C(=O)NCC(=O)N[C@@H](CCCNC(=N)N)C(=O)N[C@@H](CC(C)C)C(=O)N[C@@H](CO)C(=O)N[C@@H](C)C(=O)N[C@@H](CCC(=O)O)C(=O)N[C@@H](CC(C)C)C(=O)N[C@@H](Cc1c[nH]cn1)C(=O)N[C@@H](CCC(=O)O)C(=O)N[C@@H](CC(C)C)C(=O)N[C@@H](C)C(=O)N[C@H](C(=O)N[C@@H](CC(C)C)C(=O)N1CCC[C@H]1C(=O)N[C@@H](CCCNC(=N)N)C(=O)N[C@H](C(=O)N[C@@H](CCC(=O)O)C(=O)N[C@H](C(=O)NCC(=O)N1CCC[C@H]1C(=O)N[C@@H](CCC(=O)O)C(=O)N[C@@H](Cc1c[nH]cn1)C(=O)N1CCC[C@H]1C(N)=O)[C@@H](C)O)[C@@H](C)O)[C@@H](C)O
B8: [N-terminal(C18 diacid), 9I]mimylin (peptide)
peptide: {C18 diacid}-EASELSTAILGRLSAELHELATLPRTETGPESP-NH2
SMILES: CC[C@H](C)[C@H](NC(=O)[C@H](C)NC(=O)[C@@H](NC(=O)[C@H](CO)NC(=O)[C@H](CC(C)C)NC(=O)[C@H](CCC(=O)O)NC(=O)[C@H](CO)NC(=O)[C@H](C)NC(=O)[C@H](CCC(=O)O)NC(=O)CCCCCCCCCCCCCCCCC(=O)O)[C@@H](C)O)C(=O)N[C@@H](CC(C)C)C(=O)NCC(=O)N[C@@H](CCCNC(=N)N)C(=O)N[C@@H](CC(C)C)C(=O)N[C@@H](CO)C(=O)N[C@@H](C)C(=O)N[C@@H](CCC(=O)O)C(=O)N[C@@H](CC(C)C)C(=O)N[C@@H](Cc1c[nH]cn1)C(=O)N[C@@H](CCC(=O)O)C(=O)N[C@@H](CC(C)C)C(=O)N[C@@H](C)C(=O)N[C@H](C(=O)N[C@@H](CC(C)C)C(=O)N1CCC[C@H]1C(=O)N[C@@H](CCCNC(=N)N)C(=O)N[C@H](C(=O)N[C@@H](CCC(=O)O)C(=O)N[C@H](C(=O)NCC(=O)N1CCC[C@H]1C(=O)N[C@@H](CCC(=O)O)C(=O)N[C@@H](CO)C(=O)N1CCC[C@H]1C(N)=O)[C@@H](C)O)[C@@H](C)O)[C@@H](C)O

* marks the point of attachment. C18 diacid = O=C(O)CCCCCCCCCCCCCCCCC(=O)*

This assay concerns the target T1, human amylin receptor (human calcitonin receptor + human RAMP3) (human). Nature of the assay: whole-cell competition vs 125I-rat amylin (Assay Va).
Usually IC50 stands for the concentration needed to halve the response being measured. As for B1, the IC50 turned out to be 1.31 nM.
In the case of B2, the IC50 came to 0.329 nM.
As for B3, the figure is 0.832 nM; as for B4, 0.275 nM; as for B5, 1.48 nM.
The result for B6 reads 0.511 nM.
As for B7, the figure is 1.26 nM; as for B8, 0.417 nM.
